Measurements taken from patent US20250026827A1 (Alector, published 2025).
Like-named read-outs stand apart in the source and are kept apart here.

T1: mouse SIRPβ1 on CHO cells (mouse)
T1 construct: Whole entry
T1 chain: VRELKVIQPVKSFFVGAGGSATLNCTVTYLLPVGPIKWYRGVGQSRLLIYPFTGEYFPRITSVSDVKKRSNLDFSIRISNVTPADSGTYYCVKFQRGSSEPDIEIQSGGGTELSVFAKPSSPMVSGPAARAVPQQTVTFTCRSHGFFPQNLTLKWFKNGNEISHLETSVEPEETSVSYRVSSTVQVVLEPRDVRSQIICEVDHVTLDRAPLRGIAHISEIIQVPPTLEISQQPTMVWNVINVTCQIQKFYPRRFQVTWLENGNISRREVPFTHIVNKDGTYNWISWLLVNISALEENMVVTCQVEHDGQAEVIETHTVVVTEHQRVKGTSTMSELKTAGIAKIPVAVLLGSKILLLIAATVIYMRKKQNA


Experiments:
[1] = target: T2, human SIRPβ1 domain 1 (D1) Fc fusion (human, UniProt O00241 30-148); assay: Octet, Fab monovalent
T2 construct: Made in HEK293/T cells with a heterologous signal peptide; also called Human SIRPβ1 D1-Fc; Human SIRPβ1-Fc; not shown: C-terminal human IgG1 Fc

human SIRPα on cells [2] = target: T3, human SIRPα on cells (human, UniProt P78324 31-504); assay: flow cytometry;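 for FOB: antibody binding to cells detected with a PE-labelled secondary antibody, given as mean fluorescence intensity relative to background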
T3 construct: Whole entry

[3] = target: T1, mouse SIRPβ1 on CHO cells; assay: flow cytometry;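 for FOB: antibody binding to cells detected with a PE-labelled secondary antibody, given as mean fluorescence intensity relative to background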
[4] = target: T4, human SIRPβ1 isoform 1 on cells (human, UniProt O00241 30-398); assay: flow cytometry;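 note: antibody binding to cells detected with a PE-labelled secondary antibody, given as mean fluorescence intensity relative to background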
T4 construct: On CHO cells (low level), on BWZ/BW5147.G.1.4 cells (reporter cells co-express human DAP12) or on primary human myeloid cells; also called huSIRPβ1; BWZ-huSIRPβ1

human SIRPα on cells [5] = target: T3, human SIRPα on cells; assay: flow cytometry; remark: listed apart in the source;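 for FOB: antibody binding to cells detected with a PE-labelled secondary antibody, given as mean fluorescence intensity relative to background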
[6] = target: T1, mouse SIRPβ1 on CHO cells; assay: flow cytometry
[7] = target: T5, human SIRPα domain 1 (D1) Fc fusion (human, UniProt P78324 32-149); assay: Octet, IgG avid
T5 construct: also called human SIRPα D1-Fc; Human SIRPα Fc; not shown: C-terminal human IgG1 Fc

[8] = target: T4, human SIRPβ1 isoform 1 on cells; assay: cell binding titration; target not given
[9] = target: T2, human SIRPβ1 domain 1 (D1) Fc fusion; assay: Octet, Fab monovalent; remark: listed apart in the source
[10] = target: T6, Soluble, human SIRPβ1-Fc isoform 1 (O00241) (human, UniProt O00241 30-371, limits assumed); assay: ELISA, antigen coated
T6 construct: Whole entry named; also called human SIRPβ1 isoform 1
T6 sequence (O00241 30-371 limits assumed, one chain of several): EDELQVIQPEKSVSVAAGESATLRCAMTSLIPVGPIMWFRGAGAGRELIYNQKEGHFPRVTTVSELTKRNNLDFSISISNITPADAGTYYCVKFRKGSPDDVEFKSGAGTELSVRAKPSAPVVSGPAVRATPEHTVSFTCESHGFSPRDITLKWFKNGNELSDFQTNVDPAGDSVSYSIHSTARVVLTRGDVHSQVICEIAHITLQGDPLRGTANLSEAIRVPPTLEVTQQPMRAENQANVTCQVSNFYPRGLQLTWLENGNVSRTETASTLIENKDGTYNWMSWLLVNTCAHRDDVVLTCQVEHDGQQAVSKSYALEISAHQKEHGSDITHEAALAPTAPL
Source text: Recombinant antigen based on the sequence of SIRPβ1 isoform 1 was used for selecting anti-SIRPβ1 antibodies from yeast library pools. To ascertain if the selected anti-SIRPβ1 antibodies cross-reacted with other isoforms of human SIRPβ1 or with cynomolgus SIRPβ1, recombinant antigens based on human SIRPβ1 isoform 3 sequence and cynomolgus SIRPβ1 isoform 1 sequence were produced by transient transfection in HEK293 cells. Purified, Fc-tagged recombinant proteins were adsorbed onto 96-well plates at 1 μg/mL overnight at 4° C. Plates were subsequently washed with PBS+0.05% Tween-20 and blocked with 1% BSA+PBS for 2 hours at room temperature. Antibodies diluted in blocking buffer at 1 μg/mL were added to wells, serially diluted, and allowed to bind antigen overnight at 4° C. The following day, the primary antibodies were removed and anti-human kappa light chain antibody conjugated to horseradish peroxidase diluted 1:10,000 in blocking buffer were added to wells and incubated for 1 hour at room temperature. Plates were washed with PBS+0.05% Tween-20 and 100 μL of TMB substrate solution was added to wells to generate a colorimetric signal proportional to amount of anti-SIRPβ1 antibody bound to antigen. Once the reaction reached an appropriate color intensity, 100 μL of Stop solution was added to quench the enzyme.
Eight anti-SIRPβ1 antibodies (four parental antibodies and four corresponding affinity matured antibodies) were selected for analysis.

T4 sequence (O00241 30-398): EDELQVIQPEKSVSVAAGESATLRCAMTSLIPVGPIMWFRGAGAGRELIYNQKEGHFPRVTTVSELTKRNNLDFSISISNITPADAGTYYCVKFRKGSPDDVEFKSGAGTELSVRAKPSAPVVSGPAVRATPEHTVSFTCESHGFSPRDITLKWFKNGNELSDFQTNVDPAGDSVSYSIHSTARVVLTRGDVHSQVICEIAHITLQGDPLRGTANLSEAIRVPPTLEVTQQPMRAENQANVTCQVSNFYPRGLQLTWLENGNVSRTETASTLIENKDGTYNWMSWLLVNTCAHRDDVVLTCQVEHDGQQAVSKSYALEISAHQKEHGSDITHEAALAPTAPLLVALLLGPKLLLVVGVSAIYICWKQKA
T2 sequence (O00241 30-148 limits assumed): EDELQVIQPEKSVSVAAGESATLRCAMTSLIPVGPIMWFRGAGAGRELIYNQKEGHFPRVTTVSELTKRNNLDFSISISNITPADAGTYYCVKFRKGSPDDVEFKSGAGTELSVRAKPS

| Kd [1] [nM] | binding result (human SIRPα on cells [2]) | binding result [3] | FOB [4] [fold over background] | FOB (human SIRPα on cells [5]) [fold over background] | FOB [6] [fold over background] | binding result [7] | EC50 [8] [nM] | Kd [9] [nM] | EC50 [10] [nM] | Binder |
| --- | --- | --- | --- | --- | --- | --- | --- | --- | --- | --- |
| 407 | – | – | – | – | – | – | – | – | – | SB-15 Fab (Fab, V domains shown, Fab by papain digestion) VH: QLQLQESGPGLVKPSETLSLTCTVSGGSISSNSYYWGWIRQPPGKGLEWIGSIYYSGSTYYNPSLKSRVTISVDTSKNQFSLKLSSVTAADTAVYYCAREVGAPPSYPFDIWGQGTMVTVSS VL: not shown |
| 246 | – | – | – | – | – | – | – | – | – | SB-17 Fab (Fab, V domains shown, Fab by papain digestion) VH: QVQLVQSGAEVKKPGASVKVSCKASGYTFTSYGISWVRQAPGQGLEWMGWISAYNGNTNYAQKLQGRVTMTTDTSTSTAYMELRSLRSDDTAVYYCARGPLLYGDYHVRYGMDVWGQGTTVTVSS VL: not shown |
| – | no binding (tested: 1 ug/ml) | no binding (tested: 1 ug/ml) | 4 | 1 | 2 | no binding (tested: 100 nM) | 0.32 | – | – | SB-40-18 (antibody, V domains shown, IgG) VH: QVQLVQSGAEVKKPGASVKVSCKASGYTFTSYYMAWVRQAPGQRLEWMGWINPAVGATIYSQKFQGRVTITRDTSASTAYMELSSLRSEDTAVYYCARDTGEYSYSPHGMDVWGQGTTVTVSS VL: EIVLTQSPATLSLSPGERATLSCRASQSVSSYLAWYQQKPGQAPRLLIYDSSNRATGIPARFSGSGSGTDFTLTISSLEPEDFAVYYCQQRDEHPPWTFGGGTKVEIK |
| 266 | – | – | – | – | – | – | – | 977 | – | SB-2 Fab (Fab, V domains shown, Fab by papain digestion) VH: QVQLVESGGGVVQPGRSLRLSCAASGFTFSSYGMNWVRQAPGKGLEWVAVIWYDGSNKYYADSVKGRFTISRDNSKNTLYLQMNSLRAEDTAVYYCARDQTAAAAIWGMDVWGQGTTVTVSS VL: EIVLTQSPGTLSLSPGERATLSCRASQSVSSSYLAWYQQKPGQAPRLLIYGASSRATGIPDRFSGSGSGTDFTLTISRLEPEDFAVYYCQQSSSHPFTFGGGTKVEIK |
| – | no binding (tested: 1 ug/ml) | no binding (tested: 1 ug/ml) | 6 | 0 | 2 | no binding (tested: 100 nM) | 0.22 | – | – | SB-2-11 (antibody, V domains shown, IgG) VH: QVQLVESGGGLVQPGGSLRLSCAASGFTFARYGMHWVRQAPGKGLEWVSAISGLAGPTYADSVKGRFTISRDNSKNTLYLQMNSLRAEDTAVYYCARDQTAAWGIWGMDVWGQGTTVTVSS VL: EIVLTQSPGTLSLSPGERATLSCRASQSVSSSYLAWYQQKPGQAPRLLIYGASSRATGIPDRFSGSGSGTDFTLTISRLEPEDFAVYYCQQSSSHPFTFGGGTKVEIK |
| 131 | – | – | – | – | – | – | – | – | – | SB-6 Fab (Fab, V domains shown, Fab by papain digestion) VH: not shown VL: EIVLTQSPGTLSLSPGERATLSCRASQSVSSSYLAWYQQKPGQAPRLLIYGASSRATGIPDRFSGSGSGTDFTLTISRLEPEDFAVYYCQQSGHLPITFGGGTKVEIK |

Further lines, the binder ahead of its results:

| Binder | Kd [1] [nM] | binding result (human SIRPα on cells [2]) | binding result [3] | FOB [4] [fold over background] | FOB (human SIRPα on cells [5]) [fold over background] | FOB [6] [fold over background] | binding result [7] | EC50 [8] [nM] | Kd [9] [nM] | EC50 [10] [nM] |
| --- | --- | --- | --- | --- | --- | --- | --- | --- | --- | --- |
| SB-11 Fab (Fab, V domains shown, Fab by papain digestion) VH: QVQLVQSGAEVKKPGSSVKVSCKASGGTFSNYAISWVRQAPGQGLEWMGGIIPIFGTANYAQKFQGRVTITADESTSTAYMELSSLRSEDTAVYYCARPVDSSSYSLGYYYGMDVWGKGTTVTVSS VL: not shown | 678 | – | – | – | – | – | – | – | – | – |
| SB-49 Fab (Fab, V domains shown, Fab by papain digestion) VH: QLQLQESGPGLVKPSETLSLTCTVSGGSISSSDYYWGWIRQPPGKGLEWIGSIYYSGSTYYNPSLKSRVTISVDTSKNQFSLKLSSVTAADTAVYYCARGPTGYKDKWRYYYGMDVWGQGTTVTVSS VL: DIQMTQSPSSLSASVGDRVTITCQASQDITNYLNWYQQKPGKAPKLLIYDASNLETGVPSRFSGSGSGTDFTFTISSLQPEDIATYYCQQYFHPPLTFGGGTKVEIK | 156 | – | – | – | – | – | – | – | – | – |
| SB-40-19 (antibody, V domains shown, IgG) VH: QVQLVQSGAEVKKPGASVKVSCKASGYTFTSYYMVWVRQAPGQGLEWMGIINPSSGATNYAQKFQGRVTMTTDTSTSTAYMELRSLRSDDTAVYYCARDTGEYSYSPHGMDVWGQGTTVTVSS VL: EIVLTQSPATLSLSPGERATLSCRASQSVSSYLAWYQQKPGQAPRLLIYDSSNRATGIPARFSGSGSGTDFTLTISSLEPEDFAVYYCQQRDEHPPWTFGGGTKVEIK | – | no binding (tested: 1 ug/ml) | no binding (tested: 1 ug/ml) | 3 | 1 | 2 | no binding (tested: 100 nM) | 0.713 | – | – |
| SB-40 Fab (Fab, V domains shown, Fab by papain digestion) VH: QVQLVQSGAEVKKPGASVKVSCKASGYTFTSYYMSWVRQAPGQGLEWMGIINPSGGSTSYAQKFQGRVTMTRDTSTSTVYMELSSLRSEDTAVYYCARDTGEYSYSPHGMDVWGQGTTVTVSS VL: EIVLTQSPATLSLSPGERATLSCRASQSVSSYLAWYQQKPGQAPRLLIYDSSNRATGIPARFSGSGSGTDFTLTISSLEPEDFAVYYCQQRDEHPPWTFGGGTKVEIK | 427 | – | – | – | – | – | – | – | 918 | – |
| SB-40-21 (antibody, V domains shown, IgG) VH: QVQLVQSGAEVKKPGASVKVSCKASGYTFTSYYMVWVRQAPGQGLEWMGIINPSSGDTNYAQKFQGRVTMTRDTSISTAYMELSRLRSDDTAVYYCARDTGEYSYSPHGMDVWGQGTTVTVSS VL: EIVLTQSPATLSLSPGERATLSCRASQSVSSYLAWYQQKPGQAPRLLIYDSSNRATGIPARFSGSGSGTDFTLTISSLEPEDFAVYYCQQRDEHPPWTFGGGTKVEIK | – | no binding (tested: 1 ug/ml) | no binding (tested: 1 ug/ml) | 5 | 1 | 2 | no binding (tested: 100 nM) | 0.715 | – | 0.025 |
| SB-2-10 (antibody, V domains shown, IgG) VH: EVQLLESGGGLVQPGGSLRLSCAASGFTFGSYGMHWVRQAPGKGLEWVSAISGLAGQTYADSVKGRFTISRDNSKNTLYLQMNSLRAEDTAVYYCARDQTAAAAIWGMDVWGQGTTVTVSS VL: EIVLTQSPGTLSLSPGERATLSCRASQSVSSSYLAWYQQKPGQAPRLLIYGASSRATGIPDRFSGSGSGTDFTLTISRLEPEDFAVYYCQQSSSHPFTFGGGTKVEIK | – | no binding (tested: 1 ug/ml) | no binding (tested: 1 ug/ml) | 4 | 1 | 2 | no binding (tested: 100 nM) | 0.234 | – | – |
| SB-1 Fab (Fab, V domains shown, Fab by papain digestion) VH: not shown VL: EIVMTQSPGTLSLSPGERATLSCRASQSVSSSYLAWYQQKPGQAPRLLIYGASSRATGIPDRFSGSGSGTDFTLTISRLEPEDFAVYYCQLLGSSPRTFGGGTKVEIK | 97.9 | – | – | – | – | – | – | – | 172 | – |
| SB-8 Fab (Fab, V domains shown, Fab by papain digestion) VH: QVQLQESGPGLVKPSETLSLTCAVSGYSISSGYYWGWIRQPPGKGLEWIGSIYHSGSTYYNPSLKSRVTISVDTSKNQFSLKLSSVTAADTAVYYCARGGAMTPAGMDVWGQGTTVTVSS VL: EIVMTQSPGTLSLSPGERATLSCRASQSVSSSYLAWYQQKPGQAPRLLIYGASNRATGIPDRFSGSGSGTDFTLTISRLEPEDFAVYYCQQVYSSPYTFGGGTKVEIK | 126 | – | – | – | – | – | – | – | 151 | – |
